Laboratory results published in US20090149339A1 (published 2009).
Ends that are not written are not given here. * marks the point of attachment. Biotin = O=C1N[C@H]2[C@H](CS[C@H]2CCCCC(=O)*)N1

Tests used:
Test in all cases: A/G assays
[1] = target: GST-MPP1 PDZ domain fusion protein (55 Kd erythrocyte membrane protein AA101-186; PDZ domain 1 of 1) (UniProt P08515 1-218 = GST)
[2] = target: GST-LIM PDZ domain fusion protein (Human LIM protein AA29-112; PDZ domain 1 of 1) (human, UniProt P08515 1-218 = GST)
Sequence of GST-LIM PDZ domain fusion protein (Human LIM protein AA29-112; PDZ domain 1 of 1) (P08515 1-218, tags or fused parts left off): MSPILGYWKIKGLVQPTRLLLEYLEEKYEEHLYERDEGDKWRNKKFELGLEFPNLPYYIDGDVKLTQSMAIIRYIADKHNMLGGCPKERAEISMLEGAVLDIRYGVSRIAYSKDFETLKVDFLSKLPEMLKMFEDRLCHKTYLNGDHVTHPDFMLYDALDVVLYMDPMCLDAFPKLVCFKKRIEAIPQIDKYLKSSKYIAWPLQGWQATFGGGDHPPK

[3] = target: T1, GST-CBP PDZ domain fusion protein (Cytohesin binding protein HE AA85-175; PDZ domain 1 of 1) (UniProt P08515 1-218 = GST)
T1 construct: also called Prot
T1 sequence (P08515 1-218, tags or fused parts left off): as above

[4] = target: T2, GST-TAX33 PDZ domain fusion protein (tax interaction protein 33 AA73-162; PDZ domain 1 of 1) (UniProt P08515 1-218 = GST)
T2 construct: also called TX33
T2 sequence (P08515 1-218, tags or fused parts left off): as above

[5] = target: T3, GST-RGS12 PDZ domain fusion protein (human regulator of G-protein signalling 12 AA35-103; PDZ domain 1 of 1) (human, UniProt P08515 1-218 = GST)
T3 construct: also called RSG12
T3 sequence (P08515 1-218, tags or fused parts left off): as above

[6] = target: T4, GST-KIAA0316 PDZ domain fusion protein (KIAA0316 AA197-284; PDZ domain 1 of 1) (UniProt P08515 1-218 = GST)
T4 construct: also called K316

[7] = target: T5, GST-CASK PDZ domain fusion protein (CASK AA495-584; PDZ domain 1 of 1) (mouse, UniProt P08515 1-218 = GST)
T5 construct: also called mCASK

[8] = target: GST-AF6 PDZ domain fusion protein (af-6 protein AA985-1077; PDZ domain 1 of 1) (UniProt P08515 1-218 = GST)
Sequence of GST-AF6 PDZ domain fusion protein (af-6 protein AA985-1077; PDZ domain 1 of 1) (P08515 1-218, tags or fused parts left off): as above

[9] = target: T6, GST-NeDLG PDZ domain fusion protein (presynaptic protein sao102, neuroendocrine-dlg; PDZ domains 1-2 of 3) (UniProt P08515 1-218 = GST)
T6 construct: also called NeDLG1
T6 sequence (P08515 1-218, tags or fused parts left off): as above

[10] = target: T7, GST-TAX40 PDZ domain fusion protein (human tax interaction protein 40 AA35-137; PDZ domain 1 of 1) (human, UniProt P08515 1-218 = GST)
T7 construct: also called TX 40
T7 sequence (P08515 1-218, tags or fused parts left off): as above

[11] = target: T8, GST-TAX43 PDZ domain fusion protein (human tax interaction protein 43 AA15-85; PDZ domain 1 of 1) (human, UniProt P08515 1-218 = GST)
T8 construct: also called TX 43
T8 sequence (P08515 1-218, tags or fused parts left off): as above

[12] = target: T9, GST-KIAA0303 PDZ domain fusion protein (KIAA0303 AA652-742; PDZ domain 1 of 1) (UniProt P08515 1-218 = GST)
T9 construct: also called K303
T9 sequence (P08515 1-218, tags or fused parts left off): as above

[13] = target: GST-prIL16 PDZ domain fusion protein (putative interleukin 16 precursor AA170-383; PDZ domains 1-2 of 2) (UniProt P08515 1-218 = GST)
Sequence of GST-prIL16 PDZ domain fusion protein (putative interleukin 16 precursor AA170-383; PDZ domains 1-2 of 2) (P08515 1-218, tags or fused parts left off): as above

[14] = target: GST-MINT3 PDZ domain fusion protein (human MINT3 AA11-52; PDZ domain 1 of 1) (human, UniProt P08515 1-218 = GST)
[15] = target: GST-LIMK2 PDZ domain fusion protein (human LIM domain kinase 2 AA185-275; PDZ domain 1 of 1) (human, UniProt P08515 1-218 = GST)
Sequence of GST-LIMK2 PDZ domain fusion protein (human LIM domain kinase 2 AA185-275; PDZ domain 1 of 1) (P08515 1-218, tags or fused parts left off): as above

[16] = target: GST-PTN-4 PDZ domain fusion protein (protein-tyrosine phosphatase meg1 AA774-862; PDZ domain 1 of 1) (UniProt P08515 1-218 = GST)
Sequence of GST-PTN-4 PDZ domain fusion protein (protein-tyrosine phosphatase meg1 AA774-862; PDZ domain 1 of 1) (P08515 1-218, tags or fused parts left off): as above

[17] = target: T10, GST-TAX2 PDZ domain fusion protein (human tax interaction protein 2 AA54-140; PDZ domain 1 of 1) (human, UniProt P08515 1-218 = GST)
T10 construct: also called TX 2
T10 sequence (P08515 1-218, tags or fused parts left off): as above

[18] = target: T11, GST-SYN1a PDZ domain fusion protein (alpha1-syntrophin AA96-189; PDZ domain 1 of 1) (UniProt P08515 1-218 = GST)
T11 construct: also called SYN 1 alpha; SYNTR 1 alpha
T11 sequence (P08515 1-218, tags or fused parts left off): as above

[19] = target: T12, GST-41.8 kD PDZ domain fusion protein (hypothetical 41.8 kD protein AA4-85; PDZ domain 1 of 1) (UniProt P08515 1-218 = GST)
T12 construct: also called hypoth
T12 sequence (P08515 1-218, tags or fused parts left off): as above

[20] = target: T13, GST-KIAA0559 PDZ domain fusion protein (KIAA0559 AA766-870; PDZ1 of 1) (UniProt P08515 1-218 = GST)
T13 construct: also called K559
T13 sequence (P08515 1-218, tags or fused parts left off): as above

[21] = target: GST-PSD95 PDZ domain fusion protein (human post-synaptic density protein 95 AA387-724; PDZ domains 1-3 of 3) (human, UniProt P08515 1-218 = GST)
Sequence of GST-PSD95 PDZ domain fusion protein (human post-synaptic density protein 95 AA387-724; PDZ domains 1-3 of 3) (P08515 1-218, tags or fused parts left off): as above

[22] = target: GST-TIAM1 PDZ domain fusion protein (T-lymphoma invasion and metastasis inducing protein 1 AA1001-1088); PDZ 1 … (UniProt P08515 1-218 = GST)
[23] = target: GST-NOS1 PDZ domain fusion protein (human neuronal nitric oxide synthase; PDZ domain 1 of 1) (human, UniProt P08515 1-218 = GST)
Sequence of GST-NOS1 PDZ domain fusion protein (human neuronal nitric oxide synthase; PDZ domain 1 of 1) (P08515 1-218, tags or fused parts left off): as above

[24] = target: GST-DVL1 PDZ domain fusion protein (human dishevelled segment polarity protein homolog AA248-340); PDZ domain … (human, UniProt P08515 1-218 = GST)
Sequence of GST-DVL1 PDZ domain fusion protein (human dishevelled segment polarity protein homolog AA248-340); PDZ domain … (P08515 1-218, tags or fused parts left off): as above

[25] = target: T14, GST-MPP2 PDZ domain fusion protein (maguk p55 subfamily member 2 (DLG2) AA185-273; PDZ domain 1 of 1) (UniProt P08515 1-218 = GST)
T14 construct: also called MMP2
T14 sequence (P08515 1-218, tags or fused parts left off): as above

Measured: binding result

Sequence of GST-MPP1 PDZ domain fusion protein (55 Kd erythrocyte membrane protein AA101-186; PDZ domain 1 of 1) (P08515 1-218, tags or fused parts left off): as above

B1: FceRIb C-terminal PL peptide AA25L, biotinylated (peptide)
peptide: Biotin-YSATYSELEDPGEMSPPIDL
notes: also called Fc epsilon receptor beta I chain
no binding: all assays above

Biotin-SSSQSLESDGSYQKPSYIL [CD62E C-terminal PL peptide AA48L, biotinylated]
no binding: all assays above

Biotin-DTPSSSYTQSTMDHDLHDAL [CC CKR-4 C-terminal PL peptide AA44L, biotinylated]
no binding: all assays above

Biotin-SSKSKSSEESQTFFGLYKL [FasLigand C-terminal PL peptide AA23L-M, biotinylated]
no binding: all assays above

Biotin-LERVSSTSPSTGEHELSAGF [CC CKR-1R C-terminal PL peptide AA41L, biotinylated]
no binding: all assays above
